Results reported in paper PMC4832192, “Structural basis of DNA sequence recognition by the response regulator PhoP in Mycobacterium tuberculosis”.

Assays:
PhoP Y205A = PhoP Y205A (Mycobacterium tuberculosis, UniProt P71814 1-247, Y205A); assay: ITC; 5 mM MgCl2; ITC: 20 mM HEPES pH 7.5, 100 mM NaCl, 5 mM MgCl2, 25 C, […]; settings: protein: recombinant; tags: N-terminal His-tag removed with TEV; chain copies: 2
PhoP L113D = PhoP L113D (Mycobacterium tuberculosis, UniProt P71814 1-247, L113D); assay: as above; settings: protein: recombinant; tags: N-terminal His-tag removed with TEV; chain copies: 2

| Binder | Kd (PhoP Y205A) [nM] | Kd (PhoP L113D) [nM] |
| --- | --- | --- |
| DR (dsDNA) DNA 1: ACGATTCACAGCTGATTCACAGCATCTACG DNA 2: CGTAGATGCTGTGAATCAGCTGTGAATCGT | 21.8 ± 6.2 | 26.2 ± 6.5 |
| DRs3 (3-bp spacer) (dsDNA) DNA 1: AAGTACCTCACAGCACTTCACAGCTTTCAT DNA 2: ATGAAAGCTGTGAAGTGCTGTGAGGTACTT |  | 368 ± 52.2 |
| ahpC (dsDNA) DNA 1: TTTGCCTGACAGCGACTTCACGGCACGATG DNA 2: CATCGTGCCGTGAAGTCGCTGTCAGGCAAA | 654 ± 57.2 | 595 ± 51.4 |
| hisG (dsDNA) DNA 1: CGCGACCCGCAGCATGCTCACAGCTTTCGA DNA 2: TCGAAAGCTGTGAGCATGCTGCGGGTCGCG | 114 ± 11.2 | 117 ± 11.7 |
| lpqA (dsDNA) DNA 1: GCACCTTCACCGCCCGCCCACAGCCACGCA DNA 2: TGCGTGGCTGTGGGCGGGCGGTGAAGGTGC | 3080 ± 371 | 2870 ± 541 |
